Results from US20220364142.
Where a chain is given by its changes, count along the chain named. Names may count otherwise.

T1: Consensus peptide P3GP1'V (EGKAVLEA) (not fully specified)
T1 chain: EGKAVLEA

T2: Consensus peptide P4'A (EVKALEEA) (not fully specified)
T2 chain: EVKALEEA

T3: Consensus peptide P4'P (EVKALEEP) (not fully specified)
T3 chain: EVKALEEP

T4: DABCYL-TPLKSPPPSPR-EDANS (Calpain Substrate III; Calbiochem)
T4 chain: TPLKSPPPSPR

T5: Consensus peptide P2R (EVRALEEA) (not fully specified)
T5 chain: EVRALEEA

T6: PR1476 peptide
T6 chain: RQNRGGGCINH

T7: PR1478 peptide
T7 chain: WRQNRGGGCINH

B1: CAPN5-G267S protease core domain (protein)
chain: MFSCVKPYEDQNYSALRRDCRRRKVLFEDPLFPATDDSLYYKGTPGPAVRWKRPKGICEDPRLFVDGISSHDLHQGQVGNCWFVAACSSLASRESLWQKVIPDWKEQEWDPEKPNAYAGIFHFHFWRFGEWVDVVIDDRLPTVNNQLIYCHSNSRNEFWCALVEKAYAKLAGCYQALDGGNTADALVDFTGGVSEPIDLTEGDFANDETKRNQLFERMLKVHSRGGLISASIKAVTAADMEARLACGLVKGHAYAVTDVRKVRLGHSLLAFFKSEKLDMIRLRNPWGEREWNGPWSDTSEEWQKVSKSEREKMGVTVQDDGEFWMTFEDVCRYFTDIIKCRVI
B2: Calpain-5 protease core domain (CAPN5-PC) (protein)
chain: B1 chain with S267G

Key:
[1] = target: T1, Consensus peptide P3GP1'V (EGKAVLEA)
[2] = target: T2, Consensus peptide P4'A (EVKALEEA)
[3] = target: T3, Consensus peptide P4'P (EVKALEEP)
[4] = target: T4, DABCYL-TPLKSPPPSPR-EDANS (Calpain …)
[5] = target: T5, Consensus peptide P2R (EVRALEEA)
[6] = target: T6, PR1476 peptide
[7] = target: T7, PR1478 peptide

Protein | hydrolysis of consensus FRET peptide [1] | hydrolysis of consensus FRET peptide [2] | hydrolysis of consensus FRET peptide [3] | hydrolysis of FRET substrate (EDANS signal) [4] | catalytic efficiency (kcat/Km) [5] [vs. 7 M^-1s^-1] | hydrolysis of consensus FRET peptide [5] | substrate turnover (kcat) [5] | catalytic efficiency (kcat/Km) [6] [vs. 7 M^-1s^-1] | proteolytic cleavage of FRET peptide substrate (EDANS fluorescence) [6] | proteolytic cleavage of FRET peptide substrate (EDANS fluorescence) [7] | substrate quality compared with PR1476 [7]
B1 | These substrates were hydrolyzed by 1.6 µM CAPN5-PC p.G267S in the presence of 10 mM Ca^2+ | These substrates were hydrolyzed by 1.6 µM CAPN5-PC p.G267S in the presence of 10 mM Ca^2+ | These substrates were hydrolyzed by 1.6 µM CAPN5-PC p.G267S in the presence of 10 mM Ca^2+ | DABCYL-TPLKSPPPSPR (SEQ ID NO:3)-EDANS (Calpain Substrate III; Calbiochem; 40 µM) hydrolysis by 50 nM CAPN5-G267S protease core domain | 11 | These substrates were hydrolyzed by 1.6 µM CAPN5-PC p.G267S in the presence of 10 mM Ca^2+ | The observed substrate turnover (kcat) of these consensus peptides indicated that peptide P2R is preferred by CAPN5-PC and suggests a preference for arginine in the P2 subsite | – | – | – | –
B2 | – | – | – | – | – | – | – | 11 | PR1476 displays activity in a CAPN5 dose-dependent manner | PR1478 also displays activity in a CAPN5 dose-dependent manner | a tryptophan was added to the N-terminus of PR1476, which makes PR1478 a better substrate for CAPN5
